B1: Glycophorin A TM domain (SNGpATM) TMD (protein)
chain: GERVQLAHHFSEPEITLIIFGVMAGVIGTILLISYGIRRLIKKSPSDVKPLPSPDTDVPLSSVEIENPETSDQ
B2: Glycophorin A TM domain (SNGpATM) TMD (protein)
chain: B1 chain
modifications: E. coli inner membrane proteins at mass ratio 1.0

The series “steric trap, PE/PC” concerns the molecule itself. Briefly: steric trap, PE/PC.
Series [1] concerns the molecule itself. Description: steric trap, PG/PC.
Series [2] deals with the molecule itself. Briefly: steric trap, E. coli lipid bilayers, L/P 1500.
Series [3] deals with the molecule itself. Description: steric trap, PC bilayers, L/P 1400-1600, no IMP.
The series “steric trap, lysoPC/PC” concerns the molecule itself. Briefly: steric trap, lysoPC/PC.
The series “steric trap, PS/PC” concerns the molecule itself. Description: steric trap, PS/PC.
Series [4] deals with the molecule itself. Description: steric trap, PG/PC. This is another data set of the same source.
The series “steric trap” deals with the molecule itself. Briefly: steric trap.
The series “steric trap, DM micelles” deals with the molecule itself. Briefly: steric trap, DM micelles.
The series “steric trap, PE/PG/PC” concerns the molecule itself. Briefly: steric trap, PE/PG/PC.
Series [5] concerns the molecule itself. Briefly: steric trap, PC bilayers, L/P 1000.
Series [6] deals with the molecule itself. Description: steric trap, PG/PC. The source holds these as a separate data set.
The target in series [7] is B1. Description: steric trap, PC bilayers, L/P 1400-1600.

B1: the Kd in the series “steric trap, PE/PC” worked out at 0.00021 nM; in the series “steric trap, PG/PC [1]” it was 47 nM; in series [2] it was 10 nM; in [3] it was 0.003 nM; in the series “steric trap, lysoPC/PC”, 6 nM; in the series “steric trap, PS/PC”, 25 nM. Besides, the Kd was determined as 14 nM in “steric trap, PG/PC [4]”; 11 nM in the series “steric trap”; 170 nM in the series “steric trap, DM micelles”; 5.1 nM in “steric trap, PE/PG/PC”; 0.0015 nM in [5]; 32 nM in the series “steric trap, PG/PC [6]”.

B2 displayed a Kd in series [7] of 9.2 nM. This lies in the single-digit nanomolar range.

Usually Kd stands for the free concentration of one partner at which half of the binding sites on the other are occupied at equilibrium, for simple one-to-one binding. Read a low Kd as tighter binding.

These data come from article PMC3140635 (2012).
